According to the nanobody polyreactivity screen of Harvey et al. (2022):

test: yeast display, Sf9 membrane polyspecificity reagent, FACS + sequencing; frameworks hold sequencing errors
Outline: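 Polyreactivity labels are assigned by the sorting gate from which each nanobody was recovered. The gates were low and high (top ~1%), set on anti-HA fluorescence for expression and streptavidin fluorescence for reagent binding. Before sorting, galactose-induced (36–48 hours) yeast display cells were stained for 1 hour at 4 °C with 10% biotinylated, detergent-solubilized Sf9 membrane reagent.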

Row | Sequence | polyreactivity (PSR sort gate)
1 | QVQLEESGRGLLQAGGSLRISCAASGFIYGTNTMGWYRQAPGIARELVAAITSVGSTNYADSVKGRFTISRDNAKNTVYLQMNSLKPEDTAVYYCPATLYYQYGGDYWGQGTQVTVSS | low polyreactivity
2 | QVQLEESGVGLLQAGGSLRLSCAASGFIFCSNDMGWYRQAPGKERELVAAITRGGNTNYADSVKGRFTISRDNAKNTVYLQLNSLKPEDTAVYYCATEGYGAVQPSYEGGYWGQGTQVTVSS | low polyreactivity
3 | QVQLEESRGGIVQAGGSLRLSCAASGFTFSTYAMGWYRPAPGKELELVASISRSGNTNYADSVKGRFTISRDNAKNTVYLQMKSLKPEDTAVYSSAAELVYRRVRYDYWGQGTQVTVSS | high polyreactivity
4 | QVQLEESRGGLVQAGGSHRLSCAAYGSIFRSYAMGWYRQAPGKERDLVAAISSRSGSTYYADSVKGRFTISRDNAKNTVYLQMNSLKPEDTAVYYCAAQHRHSFGYWGQGTQVTVSS | high polyreactivity
5 | QVQLEESRGGLVQAGGSLRLSCAASGITFYTYAMGWYRQAPGKETELVAAITSRTGSTYYADSVKGRFTISRDNAKNTVYLQMNSLKPEDTAVYDCAADRTRGRDGSDYWGQGTQVTVSS | low polyreactivity
6 | QVQLEESRGGLVQAGGSLRLSCAASGYIFSYYDMGWYRQAPGKERELVASITSSGGSTYYADSVKGRFTISRDNGKNTVYLQMNSLKPEDTAVYYCNADVYDTYSPLGYYFWGQGTQVTVSS | low polyreactivity
7 | QVQLEESRGGLVQAGGSLRLSYPASGRTYVTYAMGWYRQAPGKERELVAAITSGGSTNYADSVKGRFTISRDNAKNTVYLQMNSLKPEDTAVYYCAKAYLWYKGIFDYWGQGTQVTVSS | low polyreactivity
8 | QVQLEESVGGLVQAGGSLRLSCAASGRIFAAYAMGWYRQEPGKERELVAAITGSGGRTYYADSVKGRFTISRDNAKNTVYLQMNSLKPEDTAVYYCAAESTPYSSVDRVAVYYWGQGTQVTVSS | high polyreactivity
9 | QVQLEESWGVLVQAGCSLRISCAASGRIFAYNAMGSYRQAPGKERELVAAISWRVGSTYYADSVKGRFSISRDNAKNTVYLQMNILKPEDTAVYYCAVGYYRFGRVLGYYWGQGTQVSVSS | high polyreactivity
10 | QVQLEETGGGLVQAGGSLRLSCAASGSIFHYNAMGWYRQAPGKEREFVAAITGGGGTYYADSVKGRCTISRDNAKNTVYFQMNSLKPEDTGVYYCAAQSRTSFRFNYWGQVTQVTVSS | high polyreactivity
11 | QVQLEETGGGLVQAGGSLRLTCAASVRTFRGNVMGWYREAPGKERELVAAINWTGSSTYYADSVKGRFTISRDNAKNSVYLQMNSLKPEDTAVYYCATRSGPHGGGLPRDYWGQGTQVTVSS | low polyreactivity
12 | QVQLEETGGRLVQAGARLRLSCDASGYIFFFYAMGWYRHAPGKERELDASITYRGGSTYYADSVKGRFTLSRDYAKNTVYLQINSLKPEDTAVYYCIVDGGGPLGPHGFPFDYWGQGTQVTVSS | low polyreactivity
13 | QVQLEVSGGGLVQAGRSLRLSCAASGSTFYGYAMGWYRQAPGKERELVAAITSSGGSTYYADSVKGRFTISRDNAKNTVYLQMNSLKPEDTAVYYCNAKRAPWGTLYNYWGQGTQVTVSS | high polyreactivity
14 | QVQLGDSGGGLVQAGGRLGLSCAASGSTFGRYAMGWYRPAPGKERELVAAISSSGGRTYYADSVKGRFTISRDNAKNTVYLQMNSLKPEDTAVYYCASDARFRQKYEYWGQGTQVTVSS | high polyreactivity
15 | QVQLGDSGGGLVQAGGRLRLSCAASGRTIRPYTMGWYRQAPGNERALVAAITSGGGSTYYADSVKGRFTISRDNAKNTVTLQMHSLKPDDTAVYYCAAPRRERWIDVNQHYSWGQGTQVTVSS | low polyreactivity
16 | QVQLGDSGGGLVQAGGSLRLSCAASGFNFRTNTMGWYRQEPGKERELVAAITRSGGSTYYADSVKGRFTISSDNAKYTVYLQMNSLKPEDSAVYYCAKEYRRVVADFGYWGQGTQVTVSS | high polyreactivity
17 | QVQLGDSGGGLVQAGGSLRLSCAASGRIFYGNAMGWYRQAPWKERELVAAISSGGGSTYYADSVKGRFTISRDNAKNTVYLQMNSLKPEDNAVYYCAADPVPRFPGTGGYWGQGTQVTVSS | low polyreactivity
18 | QVQLGDSGGGLVQAGGSLRLSCAASGSIFNKYAMGWYRQAPGKEREFVAPITQGGGRTYYADSVKGRFTISRDNAKNNVYLQMNSLKPEDTAVYYCIYNFNYPYYRYGYWGQGTQVTVSS | high polyreactivity
19 | QVQLGESGGGFVQAGGSLRLSCAASGSTFSYNAMGWYIQASGKESEFVAAISSSGGRTYYADSVKWRFTISRDYEKNTVYLQMKSLKPEDTAVYYCPAKSRLPTQGLGMYYWGKGTQVTVSS | high polyreactivity
20 | QVQLGESGGGLLQAGGSLRLSCAASGRSFSVNFMGWYRQAPGKDTELVAAIDTSGGSTYYADSVKGRFTISRDNAKNTVYLQMNCLNPEHTAVYVCASGFYGYRSSCYWGQGTQVTVSS | low polyreactivity
21 | QVQLGESGGGLVQAGGILRLSCAASGSIFARYAMGWYRQPPGKERELVAAISSNSASTYYADSVKGRFTISRDNAKNTVYLQMNCLIPEDTAVYYCATAYRSYWLNDYWGQGTQVTVSS | low polyreactivity
22 | QVQLGESGGGLVQAGGSLRLICAASGRTIRQYAMGRYRQAPGKERELVAAIDSGGSTYYADSVKGRFTISRDNAKNTVYLQMNSLKPEYTAVYYCAKGPSWKYYSYTLDYWGQGTQVTVSS | low polyreactivity

Row | Sequence | polyreactivity (PSR sort gate)
23 | QVQLGESGGGLVQAGGSLRLSCAASGFIFSYNAMGWYRQAPWKERELVAAISWRGGSTYYADSVKGRFTISRDNAKNTVYLQMNSLKPEDTAVYYCAAYLWRLWPSGYYYWGQGTQVTVSS | high polyreactivity
24 | QVQLGESGGGLVQAGGSLRLSCAASGFIFYVYAMGWYRQAPGKERELVAAISWSGDRTYYADSVKGRFTISRDNAKNTVYLQINSLKPEDTAVYYCAVERSVYSYYYWGQGTQVTVSS | high polyreactivity
25 | QVQLGESGGGLVQAGGSLRLSCAASGFPFQGNAMGWSRQAPGKERELLAAISYDGGSSYYADSVKGRFTISRDNAKNTVYLQMNSLKPEDTAVYYCAAYVVTWYYYWGQGTQVTLSS | high polyreactivity
26 | QVQLGESGGGLVQAGGSLRLSCAASGFTFAYYAMGWYRQAPGKERELVAAISERGGSTYYADSVKGRFTISRDNAKNTVYLQMNILKPEDTAVYYCARTFWDYPWYQSSYYSWGQGTQVTLSS | low polyreactivity
27 | QVQLGESGGGLVQAGGSLRLSCAASGFTFPVYAMGWYRQAPGKERELVAAISTSAGSTYYADSVKGRFTISRDNAKNTVYLQMNSLKPEDTAVYYCAARRRAFGSTYNYWGQGTQVTVSS | high polyreactivity
28 | QVQLGESGGGLVQAGGSLRLSCAASGGIINYYAMGWYRQAPGKEWELVAAITSAGSTYADSVKGRFTISRDNAKNTVYLQMNSLKPDDSAVYYCNAVGFVLKVGYYLIGYAKWYDYWGQGTHVTVSS | low polyreactivity
29 | QVQLGESGGGLVQAGGSLRLSCAASGIIFRYYAMGWYRQAPGKERELVAAISSSGVSTYYADSVKGRFTISRDNAQNTVYLQMNSLKPEDTAVYYCAAVTTWRMDYWGQGTQVTVSS | high polyreactivity
30 | QVQLGESGGGLVQAGGSLRLSCAASGITFRWYAMGWYRQAPGKERELVAAITSVDSTDYADSVKGRFTISRDNAKNTVYLQMNSLKPEDTAVYYCAAQPYDWFYYYYVIFPHYEYWGQGTQVTVSS | low polyreactivity
31 | QVQLGESGGGLVQAGGSLRLSCAASGNIFYANAMGWSRQAPGTERELLAAISGSGGSTYADSVKGRFTISRDNAKNTVYLQMNSLKPVDTAVYYCNASVLDAIFYKSVGYDYWGQGTQVTVSS | low polyreactivity
32 | QVQLGESGGGLVQAGGSLRLSCAASGRIFPWNTMGWYRQAPGKERELVAGITSGGSTNYADSVKGRFTISRDNAKNTVYLLMNCLKPEATAVYYCAARGYYWYISGVYEYEYWGQGTQVTLSS | low polyreactivity
33 | QVQLGESGGGLVQAGGSLRLSCAASGRTFGLYAMGWYRQAPGKERELVAAISRGTSTNYADSVKGRFTISRDNAKNTVYLEMYSLKPEDTAVYYCNARRKFVGKWGDYWGQGTQVTVSS | low polyreactivity
34 | QVQLGESGGGLVQAGGSLRLSCAASGRTFGYNAIGWYRQAPGKEMELVAVIRSGGSTYYADSVKGRFTISRDNAKNTVYLQMNSLKPEDTAVYYCNADVLPTWYSPELDYWGQGTQVTVSS | low polyreactivity
35 | QVQLGESGGGLVQAGGSLRLSCAASGRTFYGYPMGWYRQAPGKERELVAAISRNGASTFYADSVKGRFTISRDNAKNTVYLQMNSLKPEDTAVYYCNARSWRHTDTSFEYWGQGTQVTVSS | high polyreactivity
36 | QVQLGESGGGLVQAGGSLRLSCAASGRTFYINTMGWYRQAPGKEREFVAAISSGGGRTYYADSVKGRFTISRDNAKNTVYLQMNSLKPEDTAVYYCAAYLGGAEDTYRFGYWGQGTQVTVSS | high polyreactivity
37 | QVQLGESGGGLVQAGGSLRLSCAASGRTIGYYAMGWYRQAPGKERELVAAISVSGTNTYYADSVKGRFTISRDNAKNTVNLQMNSLKPEDTAVYYCAARKVSGVYRAFYYWGQGTQVTVSS | high polyreactivity
38 | QVQLGESGGGLVQAGGSLRLSCAASGRTITRNAMGWYRQAPGKERELVAAISYSGGSTYYADSVKGRFTISRDNAKNTVYLQMNSLKPEDTAVYYFNAATSRRSIRYDYWGQGTQVTVSS | high polyreactivity
39 | QVQLGESGGGLVQAGGSLRLSCAASGSIFGGNTKGWYRQAPGKERELVAAINGGVTTNYADSVKGRFTISRDNAKNTVYLQMNSLKPEDTAVYYCNAVDFGPVVLRLYYWGQGTQVTVSS | low polyreactivity
40 | QVQLGESGGGLVQAGGSLRLSCAASGSIFQKYTMGWYRQAPGKERELVAAITRSGGSTYYADSVKGRFTISRDNAKNTVDFQMNSLKPEDTAVYYCAAPAAGDEYDYWGQVTQVTVSS | high polyreactivity
41 | QVQLGESGGGLVQAGGSLRLSCAASGSIFTYNPMGWYRQAPGKERELVAAITIDDGSTYYADSVKGRFTISRDNAKNTVYLQMNSLKPEDTAVYYCAADFYGVSYSGGEMDYWGLGTQVTVSS | low polyreactivity
42 | QVQLGESGGGLVQAGGSLRLSCAASGSIFYFNAMGWYRQAPGKERELVAAISWSGRTYYADSVKGRFTISRDNAKNTVYLQMNSLKPEDTAVFYCAAKNTGRYYWGQGTQVTVSS | high polyreactivity
43 | QVQLGESGGGLVQAGGSLRLSCAASGSILTPYSMGWYRQAPGKERELDAAITFRGGSTYYADSVKGRFTISRDNAKNTVYLQMNSLKPEDTAVYYCAAGWYWSYWDPYDYWGQGTQVTVSS | high polyreactivity
